Data as given in the RNAGym collection of RNA variant scans (doi:10.1073/pnas.2313332121).

B1: TPR t1 (parent)
chain: GACCAAUCUGCCCUCAGAGCUCGAGAACAUCUUCGGAUGCAGAGGAGGCAGGCUUCGGUGGCGCGAUAGCGCCAACGUCCUCAACCUCCAAUGCAUCCCACCACAUGAUGAUGCCUGAAGAGCCUUGGUUUUUUG

Variants of: B1
Experiment: polymerase ribozyme fitness, log enrichment relative to wild type (log ratio); higher = more active; in vitro selection for triplet polymerase activity
In short: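 For each subunit of a heterodimeric triplet polymerase ribozyme, a mutant library was built by PCR and transcribed, then taken through a single in vitro selection round in triplicate. Selection involved annealing to a biotinylated primer, the partner subunit and triplets, incubation frozen at −7 °C, gel excision of extended constructs, capture on streptavidin beads and RT-PCR. Genotypes were retained after Illumina sequencing of inputs and outputs only with ≥10 input reads and ≥1 read in each output. Fitness is defined as the logarithm of a genotype's enrichment relative to wild-type enrichment, using inverse-variance-weighted averages across replicates, with the logarithm taken to base 2.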

Row | Variant | polymerase ribozyme fitness (log ratio)
1 | GACCAAUCUGCCCUUAGAGCUCGAGAACAUCUUCGGAUGCAGAGGAGGCAGACUUCGGUGGCGCGAUAGCGCCAACGUCCUCAACCUCCAAUGCAUCCCACGACAUGAUGAUGCCUGAAGAGCAUUGGUUUUUUG [C15U G52A C102G C124A] | -5.21
2 | GACCAAUCUGCCCUCCGAGCUCGAGAACAUCUUCGGAUGCAGAGGAGGCAGACUUCGGUGGCGCGAUAGCGCCAACGUCCUCAACCUCCAAUGCAUCCCACCACAUGAUGAUGCCUGAGGAGCCUUGGUUUUUUG [A16C G52A A119G] | 0.273
3 | GACCAAUCUGCCCUUAGAGCUCGAGAACAUCCUCGGAUGCAGAGGAGGCAGGCUUCGGUGGCGCGAUAGCGCCAACGUCCUCAACCUCAAAUGCAUCCCACCACAUGAUGAUGCCUGAGGAGCCUUGCUUUUUUG [C15U U32C C89A A119G G128C] | -3.29
4 | GACCAAUCUGCCCUUAGAGCUCGAGAACAUCUUCGGAUGCAGAGGAGGCAGGCUUCGGUGGCUCGAUAGCGCCAACGACCUCAACCUCCAAUGCAUCCCACCACAUGAUGAUGCCUGAAGAGCCUUCGUUUUUUG [C15U G63U U78A G127C] | -4.1
5 | GACCAAUCUGCCCUUAGAGCUCGAGAACAUCUUCGGAUGCAGAGGAGGCAGGCCUCGGUGGCGCGAUAGCGUCAACGUCCUCAACCUCCAAUGCAUCCCACCACAUGAUGAUGCCUGAAGAGCCUUGGUUUUUUG [C15U U54C C72U] | -1.39
6 | GACCAAUCUGCCCUUAGAGCUCGAGAACAUCUUCGGAUGCAGAGGAGGCAGGCUUCGGUGACGCGAUAGCGCCAACGUCCUCAACCUCAAAUGCAUCCCACCACAUGAUGUUGCCUGAAGAGCCUUGGUUUUUUG [C15U G61A C89A A111U] | -6.53
7 | GACCAAUCUGCCCUCCGAGCUCGAGAACAUCUUCGGAUGCAGAGGUGGCAGGCUUCGGUGGCGCGAUAGCGCCAACGUCCUCAACCUCCAAUGCAUCCCACCACAUGAUGAUGCCUAAAGAGCCUUGGUUUUGUG [A16C A46U G117A U133G] | -6.47
8 | GACCAAUCUGCCCUCCGAGCUCGAGAACAUCUUCGGAUGCAGAGGAGGCGGGCUUCGGUGGCGCGAUAGCGCCAACGUCCUCAACCUCCAAUGCAUCCCACCACAUGAUGAUGCCUGAAGAGCCUUGGUUUUUUG [A16C A50G] | -2.32
9 | GACCAAUCUGCCCUCCGAGCUCGAGAACAUCUUCGGAUGCAGAGGAGGCAGGCUUUGGUGGCGCGAUAUCGCCAACGUCCUCAACCUCCAAUGCAUCCCACCACAUGAUGAUGCCUGAAAAGCCUUGGUUUUUUG [A16C C56U G69U G120A] | -3.38
10 | GACCAAUCUGCCCUUAGAGCUCGAGAACAUCUUCGGAUGCAGAGGAGGCAGGCUUCGGUGCCGCGAUAGCGCCAACGUCCUCAACCUCCAAUGCAUCCCACCACAUGAUGAUGCCUGAAGAGCCAUGGUUUUUUG [C15U G61C U125A] | -2.92
11 | GACCAAUCUGCCCUUAGAGCUCGAGAACAUCUUCGGAUGCAGAGGAGGCAGGCUUCGGUGGCACGAUAGCGCCAACGUACUCAACCUCCAAUGCAUCCCACCACAUGAUGAGGCCUGAAGAGCCUUGGUUUUUUG [C15U G63A C79A U112G] | -5.66
12 | GACCAAUCUGCCCUUAGAGCUCGAGAACAUCUUCGGAUGCAGAGGAGGCAGGCUUCGGUGGCGCGAUAGCCCCAACGUCGUCAACCUCCAAUGCAUCCCACCACAUGAUGAUGCCUGAAGAGCCUUGGUUUUUUG [C15U G71C C80G] | -6.22
13 | GACCAAUCUGCCCUCCGAGCUCGAGAACAUCUUCGGAUGCAGAGGAGGCAGGGUUCGGUGGCUCGAUAGCGCCAACGUCCUCAACCUCCAAUGCAUCCCACCACAUGAUGAUGCCUGAAGAGCCUUGGUUUCUUG [A16C C53G G63U U132C] | -4
14 | GACCAAUCUGCCCUUAGAGCUCGAGAACAUCUUCGGAUGCAGAGGAGGCAGGCUUCGGUGGCGCGAUAUCGCCAACGUCCUCAACCUCCAAUGCAUCCCACCACAUGAUGAUGCCUGAAGAGCCUUGGUUUUUUG [C15U G69U] | -1.38
15 | GACCAAUCUGCCCUCCGAGCUCGAGAACAUCUUCGGAUGCAGAGGAGGCAGCCUUCGGUGGUGCGAUAGCGCCAACGUCCUCAACCUCCAAUGCAUCCCACCACAUGAUGAUGCCUGAAGAGCCUUGGUUUUUUG [A16C G52C C62U] | -3.32
16 | GACCAAUCUGCCCUCCGAGCUCGAGAACAUCUUCGGAUGCAGAUGAGGCAGGCUUCGGUGGCGCGAUAGCGCCAACGUCCUCAACCUCCAAUGCAUCCCACCACAUGAUGAUGCCUGAAGAGCCGUGGUUUUUUG [A16C G44U U125G] | -4.42
17 | GACCAAUCUGCCCUUAGAGCUCGAGAACAUCUUCGGAUGCAGAGGAGGCAGGCUUCGGUGGCACGAUAGCGCCAACGUCCUCAACCUCCAAUGCAUCCCACCACAUGAUGAUGCCUGAAGAGCCUUGGUUUUUUG [C15U G63A] | -2.04
18 | GACCAAUCUGCCCUCCGAGCUCGAGAACAUCUUCGGAUGCAGAGGAGGCAGGCUUCGGUGGCGCGAUAGCGCCAACGUCCUCAACCUCCAAUGCAUCCCACCACAUGAUGAUGCCUGAAGAGCAUUGGUUUUUUG [A16C C124A] | 0.87
19 | GACCAAUCUGCCCUUAGAGCUCGAGAACAUCUUCGGAUGCAGAGGAGGCAGGCUUCGGUGGCCCGAUAGCGCCAACGUCCUCAACCUCCAAUGCAUCCCACCACAUGAUGAUGCCUGAAGAGCCUUGGCUUUUUG [C15U G63C U129C] | -2
20 | GACCAAUCUGCCCUCCGAGCUCGAGAACAUCUUCGGAUGCAGAGGAGGAAGGCUUCGGUGGCGCGAUAGCGCCAACGUCCUCAACCUCCAAUGAAUCCCACCACAUGAUGAUGCCUGAAGAGCAUUGGUUUUUUG [A16C C49A C94A C124A] | -0.594
21 | GACCAAUCUGCCCUCCGAGGUCGAGAACAUCUUCGGAUGCAGAGGAGGCAGGCUUCGGGGGCGCGAUAGCGCCAACGUCCUCAACCUCCAAUGCAUCCCACCACAAGAUGAUACCUGAAGAGCCUUGGUUUUUUG [A16C C20G U59G U106A G113A] | -5.4
